# Experimental data taken from US20260109776A1 (Amgen, published 2026).
# T1: cynoCD40(1-193) (cynomolgus monkey, UniProt P25942 21-193 (human entry))
# T1 construct: also called soluble cynomolgus monkey CD40
# T1 chain: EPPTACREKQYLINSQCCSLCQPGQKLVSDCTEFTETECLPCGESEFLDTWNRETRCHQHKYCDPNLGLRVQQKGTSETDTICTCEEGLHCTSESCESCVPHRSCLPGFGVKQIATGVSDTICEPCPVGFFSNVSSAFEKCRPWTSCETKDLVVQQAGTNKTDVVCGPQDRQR
# T2: cynoMSLN(296-598) (cynomolgus monkey)
# T2 chain: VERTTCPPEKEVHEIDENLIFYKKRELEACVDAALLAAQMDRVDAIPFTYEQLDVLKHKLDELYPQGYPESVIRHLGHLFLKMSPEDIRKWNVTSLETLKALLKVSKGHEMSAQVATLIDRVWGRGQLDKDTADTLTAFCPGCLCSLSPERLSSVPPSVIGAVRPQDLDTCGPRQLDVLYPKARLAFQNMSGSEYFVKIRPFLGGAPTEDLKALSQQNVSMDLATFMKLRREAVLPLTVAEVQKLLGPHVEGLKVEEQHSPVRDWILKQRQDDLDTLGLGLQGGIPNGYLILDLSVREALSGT
# Tests used:
# huCD40(1-193) = target: T3, huCD40(1-193) (human, UniProt P25942 21-193); experiment: Octet
# T3 construct: also called soluble human CD40
# Experimental: (§1) A panel of mesothelin×CD40 bispecific antibodies were generated in the IgG-scFv format (Table 13) and evaluated for binding to soluble forms of human and cynomolgus monkey CD40 and human and cynomolgus monkey mesothelin using the Octet assay (Table 14). Association rate (Kon), disassociation rate (Kdis), and equilibrium binding constant (KD) were calculated. […] These bispecific antibodies were next evaluated for their ability to induce mesothelin-dependent activation of human B cells. CHO cells expressing human mesothelin were seeded into a 96 well plate. The next day varying concentrations of the mesothelin×CD40 IgG-scFv antibodies were added to the wells along with purified human B cells and the plates were incubated for an additional 48 hours. Upregulation of CD86, a marker of CD40-mediated B cell activation, was quantified on B cells by flow cytometry.
# cynoCD40(1-193) = target: T1, cynoCD40(1-193); experiment: Octet
# Experimental: as §1
# huMSLN(296-598) = target: T4, huMSLN(296-598) (human, UniProt Q13421 296-598); experiment: Octet
# T4 construct: also called soluble human mesothelin
# Experimental: as §1
# cynoMSLN(296-598) = target: T2, cynoMSLN(296-598); experiment: Octet
# Experimental: as §1
# human CD40 = human CD40 (human, UniProt P25942 21-277); experiment: cell-based or functional assay
# T4 sequence (Q13421 other isoform, or with tags, fused parts or gaps): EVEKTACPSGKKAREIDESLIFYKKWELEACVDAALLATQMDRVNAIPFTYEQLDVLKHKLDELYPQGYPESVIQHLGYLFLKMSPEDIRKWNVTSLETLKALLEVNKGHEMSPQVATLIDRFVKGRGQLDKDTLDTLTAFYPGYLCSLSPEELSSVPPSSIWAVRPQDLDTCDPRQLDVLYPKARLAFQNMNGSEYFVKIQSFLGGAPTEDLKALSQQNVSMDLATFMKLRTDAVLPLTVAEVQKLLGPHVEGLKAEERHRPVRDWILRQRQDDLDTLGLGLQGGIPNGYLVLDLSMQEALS
Kd (huCD40(1-193)),koff (huCD40(1-193)),kon (huCD40(1-193)),Kd (cynoCD40(1-193)),koff (cynoCD40(1-193)),kon (cynoCD40(1-193)),Kd (huMSLN(296-598)),koff (huMSLN(296-598)),kon (huMSLN(296-598)),Kd (cynoMSLN(296-598)),koff (cynoMSLN(296-598)),kon (cynoMSLN(296-598)),"EC50 (nM), CD86 upregulation on human B cells with huMSLN-CHO cells (human CD40)",Binder
3.5 nM,0.000431 s⁻¹,124000 M⁻¹ s⁻¹,4.7 nM,0.000466 s⁻¹,100000 M⁻¹ s⁻¹,0.2 nM,0.000135 s⁻¹,599000 M⁻¹ s⁻¹,5.5 nM,0.00105 s⁻¹,191000 M⁻¹ s⁻¹,0.00375 nM,"6051-2 (bispecific antibody, IgG-scFv: IgG (CD40) 36F3, scFv (MSLN) 4H6) heavy: not shown light: EIVLTQSPGTLSLSPGERATLSCRASQSVSSNYLAWYQQKPGQAPRALIYAASNRAAGISDRFSGSGSGTDFTLTISRLEPEDFAVYFCQQYGSSPLTFGGGTKVEIKRTVAAPSVFIFPPSDEQLKSGTASVVCLLNNFYPREAKVQWKVDNALQSGNSQESVTEQDSKDSTYSLSSTLTLSKADYEKHKVYACEVTHQGLSSPVTKSFNRGEC"
0.9 nM,0.000427 s⁻¹,453000 M⁻¹ s⁻¹,0.5 nM,0.000125 s⁻¹,263000 M⁻¹ s⁻¹,0.4 nM,0.000151 s⁻¹,341000 M⁻¹ s⁻¹,4.3 nM,0.00109 s⁻¹,252000 M⁻¹ s⁻¹,0.00403 nM,"6053-2 (bispecific antibody, IgG-scFv: IgG (CD40) 39C2, scFv (MSLN) 4H6) heavy: not shown light: QSALTQPASVSGSPGQSITISCTGTSSDVGNYNLVSWYQQHPGKAPKLMIYEVNRRPSGVSNRFSGSKSGNTASLTISGLQAEDEAEYYCCSYAGRDTFVVFGGGTKLTVLGQPKAAPSVTLFPPSSEELQANKATLVCLISDFYPGAVTVAWKADSSPVKAGVETTTPSKQSNNKYAASSYLSLTPEQWKSHRSYSCQVTHEGSTVEKTVAPTECS"
1 nM,0.00044 s⁻¹,431000 M⁻¹ s⁻¹,0.9 nM,0.000413 s⁻¹,447000 M⁻¹ s⁻¹,1.1 nM,0.00046 s⁻¹,432000 M⁻¹ s⁻¹,16 nM,0.00535 s⁻¹,326000 M⁻¹ s⁻¹,0.00281 nM,"6023-2 (bispecific antibody, IgG-scFv: IgG (CD40) 39C2, scFv (MSLN) 6F4) heavy: not shown light: QSALTQPASVSGSPGQSITISCTGTSSDVGNYNLVSWYQQHPGKAPKLMIYEVNRRPSGVSNRFSGSKSGNTASLTISGLQAEDEAEYYCCSYAGRDTFVVFGGGTKLTVLGQPKAAPSVTLFPPSSEELQANKATLVCLISDFYPGAVTVAWKADSSPVKAGVETTTPSKQSNNKYAASSYLSLTPEQWKSHRSYSCQVTHEGSTVEKTVAPTECS"
0.5 nM,0.000787 s⁻¹,1.46e+06 M⁻¹ s⁻¹,0.8 nM,0.00057 s⁻¹,745000 M⁻¹ s⁻¹,0.4 nM,0.000211 s⁻¹,552000 M⁻¹ s⁻¹,6.1 nM,0.00109 s⁻¹,179000 M⁻¹ s⁻¹,0.00434 nM,"6055-2 (bispecific antibody, IgG-scFv: IgG (CD40) 37A6, scFv (MSLN) 4H6) heavy: not shown light: SYELTQPPSVSVSPGQTASITCSGERLGNKYICWYQQKPGQSPVLVIYQDFKRPSGIPERFSGSNSGITATLTISGTQAMDEADYYCQAWDSRTVVFGGGTKLTVLGQPKAAPSVTLFPPSSEELQANKATLVCLISDFYPGAVTVAWKADSSPVKAGVETTTPSKQSNNKYAASSYLSLTPEQWKSHRSYSCQVTHEGSTVEKTVAPTECS"
